Reference: patent US20220119534A1 (DRAGONFLY THERAPEUTICS, published 2022)

What was measured:
[1] = biological target: T1, mFc-hNKG2D (human, UniProt P26718 73-216); test: SPR Biacore 8K 37 C; mFc-hNKG2D captured on anti-mFc chip, TriNKET as analyte; 1:1 kinetic fit; after 0.02% H2O2 24 h
T1 construct: extracellular domain; Made in house (Dragonfly Tx); the order of tag and ECD follows the name mFc-hNKG2D; also called mFc-tagged human NKG2D; not shown: mouse Fc tag
T1 sequence (looked up): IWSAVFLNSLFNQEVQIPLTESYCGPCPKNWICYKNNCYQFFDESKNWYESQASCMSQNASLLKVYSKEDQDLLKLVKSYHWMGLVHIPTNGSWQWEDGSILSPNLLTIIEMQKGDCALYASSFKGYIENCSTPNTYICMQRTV

[2] = biological target: T1, mFc-hNKG2D; test: SPR Biacore 8K 37 C; mFc-hNKG2D captured on anti-mFc chip, TriNKET as analyte; steady state fit; after 2 wks 40 C at pH 8.0
Description: (§1) Association was monitored for 60 seconds and dissociation was monitored for 60 seconds. Surfaces were regenerated between cycles with three pulses of 10 mM glycine-HCl, pH 1.7 injected for 20 seconds at 100 μL/min. HBS-EP+ (1×) buffer was used throughout the experiment. Data were analyzed using Biacore 8K Insight evaluation software (GE Healthcare).

[3] = biological target: T1, mFc-hNKG2D; test: SPR Biacore 8K 37 C; mFc-hNKG2D captured on anti-mFc chip, TriNKET as analyte; steady state affinity fit; average of 4
Description: Association was monitored for 60 seconds, and dissociation was monitored for 60 seconds. Surfaces were regenerated between cycles with three pulses of 10 mM glycine-HCl (pH 1.7) injected for 20 seconds at 100 μL/min.
Two different fits were utilized to obtain the equilibrium affinity data: steady state affinity fit and kinetic fit.

[4] = biological target: T1, mFc-hNKG2D; test: SPR Biacore 8K 37 C; mFc-hNKG2D captured on anti-mFc chip, TriNKET as analyte; steady state fit; after 4 wks 40 C in HST pH 6.0
Description: as §1

[5] = biological target: T2, Human CLEC12A-His (human, UniProt Q5QGZ9 65-265); test: SPR Biacore 8K 37 C; TriNKET captured on anti-hFc chip, hCLEC12A-His as analyte; 1:1 fit; after 0.02% H2O2 24 h, n=2
T2 construct: Recombinant soluble protein made in house (Dragonfly Tx); The hCLEC12A spot of the HuProt array is written under this molecule as well; also called hCLEC12A-His; hCLEC12A; not shown: His tag
T2 sequence: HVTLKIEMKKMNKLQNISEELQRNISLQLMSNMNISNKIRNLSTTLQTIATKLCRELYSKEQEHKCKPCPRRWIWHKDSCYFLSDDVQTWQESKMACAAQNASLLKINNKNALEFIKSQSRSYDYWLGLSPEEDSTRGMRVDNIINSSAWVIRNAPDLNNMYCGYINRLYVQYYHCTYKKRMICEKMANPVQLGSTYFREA

[6] = biological target: T1, mFc-hNKG2D; test: SPR Biacore 8K 37 C; mFc-hNKG2D captured on anti-mFc chip, TriNKET as analyte; steady state fit; control sample, n=3
Description: as §1

[7] = biological target: T1, mFc-hNKG2D; test: SPR Biacore 8K 37 C; mFc-hNKG2D captured on anti-mFc chip, TriNKET as analyte; steady state fit; after 4 wks 40 C in phosphate/citrate/NaCl pH 7.8, n=2
Description: as §1

[8] = biological target: T1, mFc-hNKG2D; test: SPR Biacore 8K 37 C; mFc-hNKG2D captured on anti-mFc chip, TriNKET as analyte; 1:1 kinetic fit; after 4 wks 40 C in CST pH 7.0, n=3
Description: as §1

- Kd [1]: 722 nM
- koff [1]: 0.107 s⁻¹
- kon [1]: 148000 M⁻¹ s⁻¹
- Kd [2]: 919 nM
- Kd [3]: 727 nM
- Kd [4]: 776 nM
- Kd [5]: 1.1 nM
- koff [5]: 0.00087 s⁻¹
- kon [5]: 806000 M⁻¹ s⁻¹
- Kd [6]: 664 nM
- Kd [7]: 872 nM
- Kd [8]: 708 nM
- koff [8]: 0.14 s⁻¹
- kon [8]: 198000 M⁻¹ s⁻¹
B1: F3'-1602 TriNKET (bispecific antibody, human IgG1, kappa)
chain: QLQLQESGPGLVKPSETLSLTCTVSGFSLTNYGLHWIRQPPGKCLEWIGVIWSGGKTDYNPSLKSRVTISKDTSKNQFSLKLSSVQAADTAVYYCAKYDYDDSLDYWGQGTLVTVSSGGGGSGGGGSGGGGSGGGGSDIQMTQSPSSLSASVGDRVTITCHASQNINFWLSWYQQKPGKAPKLLIYEASNLHTGVPSRFSGSGSGTRFTLTISSLQPEDIATYYCQQSHSYPLTFGCGTKLEIKGSDKTHTCPPCPAPELLGGPSVFLFPPKPKDTLMISRTPEVTCVVVDVSHEDPEVKFNWYVDGVEVHNAKTKPREEQYNSTYRVVSVLTVLHQDWLNGKEYKCKVSNKALPAPIEKTISKAKGQPREPRVYTLPPCRDELTKNQVSLTCLVKGFYPSDIAVEWESNGQPENNYKTTPPVLVSDGSFTLYSKLTVDKSRWQQGNVFSCSVMHEALHNHYTQKSLSLSPG
heavy: EVQLVESGGGLVKPGGSLRLSCAASGFTFSSYSMNWVRQAPGKGLEWVSSISSSSSYIYYADSVKGRFTISRDNAKNSLYLQMNSLRAEDTAVYYCARGAPIGAAAGWFDPWGQGTLVTVSSASTKGPSVFPLAPSSKSTSGGTAALGCLVKDYFPEPVTVSWNSGALTSGVHTFPAVLQSSGLYSLSSVVTVPSSSLGTQTYICNVNHKPSNTKVDKKVEPKSCDKTHTCPPCPAPELLGGPSVFLFPPKPKDTLMISRTPEVTCVVVDVSHEDPEVKFNWYVDGVEVHNAKTKPREEQYNSTYRVVSVLTVLHQDWLNGKEYKCKVSNKALPAPIEKTISKAKGQPREPQVCTLPPSRDELTENQVSLTCLVKGFYPSDIAVEWESNGQPENNYKTTPPVLDSDGSFFLYSWLTVDKSRWQQGNVFSCSVMHEALHNHYTQKSLSLSPG
light: DIQMTQSPSSVSASVGDRVTITCRASQGISSWLAWYQQKPGKAPKLLIYAASSLQSGVPSRFSGSGSGTDFTLTISSLQPEDFATYYCQQGVSFPRTFGGGTKVEIKRTVAAPSVFIFPPSDEQLKSGTASVVCLLNNFYPREAKVQWKVDNALQSGNSQESVTEQDSKDSTYSLSSTLTLSKADYEKHKVYACEVTHQGLSSPVTKSFNRGEC
notes: Trispecific F3' format: CLEC12A scFv-Fc paired with NKG2D Fab-Fc; Stressed and control samples of the stability studies are the same molecule; also called AB0237
